Here are results for one molecule from US20240352121A1 (NEXTCURE, published 2024).

The target in assay [1] is T1, human LAIR-1 expressed on cells (293T cells overexpressing human LAIR-1; leukemic cells) (human, UniProt Q6GTX8 22-287).
T1 construct: also called human LAIR-1 cells
T1 chain: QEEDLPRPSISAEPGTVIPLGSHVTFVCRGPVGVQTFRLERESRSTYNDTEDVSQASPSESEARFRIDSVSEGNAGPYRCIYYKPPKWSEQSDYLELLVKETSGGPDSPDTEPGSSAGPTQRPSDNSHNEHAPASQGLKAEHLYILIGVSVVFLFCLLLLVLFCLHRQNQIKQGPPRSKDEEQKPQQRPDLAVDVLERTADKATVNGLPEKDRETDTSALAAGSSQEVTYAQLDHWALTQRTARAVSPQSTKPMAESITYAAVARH
The assay is described as follows: cell binding, human LAIR-1 cells (FIG. 20A).

Assay [2] addresses T2, LAIR-1 (human; form used for the KD not stated) (human, UniProt Q6GTX8 22-165, limits assumed).
T2 construct: also called Leukocyte Associated Immunoglobulin Like Receptor 1
T2 chain: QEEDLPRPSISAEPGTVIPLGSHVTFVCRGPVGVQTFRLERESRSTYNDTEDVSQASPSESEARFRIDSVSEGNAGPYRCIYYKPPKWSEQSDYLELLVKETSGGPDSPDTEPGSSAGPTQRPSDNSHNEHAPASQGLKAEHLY
As to the kind of experiment: method not stated (in vitro activity listed in the legend of FIG. 20).

In assay [3] the target is human LAIR-1 fused to the zeta chain of CD3, on UT-140 reporter cells (human, UniProt P20963 31-164). As to the kind of experiment: cell-based or functional assay.

B1: h11B3 LAIR-1 mAb, Anti-LAIR-1 Variant 6 (h11B3 VL-2 / h11B3 VH-3) (antibody, V domains shown)
VH: EVQLVESGGGLVQPGGSLKLSCAASGFTFNTNAMYWVRQAPGKGLEWVGRIRSKSSNYATYYAASVKGRFTISRDDSKNTLYLQMNSLKTEDTAVYYCVRGGSGFFAYWGQGTLVTVSS
VL: DIQMTQSPSSLSASLGDRVTITCKASEDIYIRLAWYQQKPGKAPRLLISTATSLETGVPSRFSGSGSGTDYTFTISSLQPEDIATYYCQQYWSTPYTFGGGTRLEIK
notes: In the MV4-11 staining the mAb was AF647-conjugated; also called h11B3v6; humanized 11B3 LAIR-1 mAbs
By EC50 is commonly meant the concentration that produces a half-maximal response. The low end stands for greater potency, the high end for weaker potency. In general, Kd refers to the equilibrium constant for the complex coming apart. B1: the EC50 in assay [1] stood at 0.15 nM. This molecule displayed a dissociation constant (Kd) in assay [2] of 2.1 nM. Moreover, the “blocks signaling IC50” value in assay [3] came to 0.25 nM.
